# Laboratory results published in patent publication US20230295312A1 (AKESO BIOPHARMA, published 2023).
# T1: human IL4RA-hFc (human, UniProt P24394 26-232)
# T1 construct: mature; Coating antigen in ELISA
# T1 sequence (looked up): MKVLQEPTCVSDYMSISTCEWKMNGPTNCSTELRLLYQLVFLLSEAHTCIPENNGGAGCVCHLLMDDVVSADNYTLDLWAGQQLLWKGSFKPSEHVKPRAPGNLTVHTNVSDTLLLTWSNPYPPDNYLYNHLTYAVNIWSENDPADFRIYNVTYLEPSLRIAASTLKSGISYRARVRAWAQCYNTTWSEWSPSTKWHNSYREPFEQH
# Key:
# [1] = biological target: T1, human IL4RA-hFc; test: indirect ELISA, antigen coated 1 ug/mL
# Protocol: Procedures: The ELISA plates were coated with human IL4RA-hFc or human IL4RA-mFc and were incubated, and target antibodies were added after blocking. […] The plates were incubated and washed before TMB (Neogen, 308177) was added for chromogenic reaction. At the end of the reaction, the absorbance at 450 nm was measured by a plate reader. The data were analyzed by SoftMax Pro 6.2.1.
# [2] = biological target: T1, human IL4RA-hFc; test: competitive ELISA vs IL4-N-His; Ab 3 ug/mL
# Protocol: (§1) The ELISA plates were coated with human IL4RA-hFc and blocked before the antibodies were added. […] After the plates were washed, mouse anti-His, HRP (purchased from CoWin Biosciences, Cat No. CW0285A) was added for incubation. The plates were subjected to another wash. Chromogenic reaction was started by adding TMB (Neogen, 308177) and was then terminated. At the end of the reaction, the OD value at 450 nm wavelength was measured by a plate reader, and was analyzed and processed by SoftMax Pro 6.2.1.
# (§2) By 4-parameter logistic regression of absorbance vs. antibody concentration, the blocking EC₅₀ of the antibodies was calculated.
# [3] = biological target: T1, human IL4RA-hFc; test: competitive ELISA; blocks IL4-N-His binding to coated IL4RA-hFc
# [4] = biological target: T1, human IL4RA-hFc; test: competitive ELISA; blocks IL4-N-His (0.15 ug/ml) binding to coated IL4RA-hFc (2 ug/mL)
# Protocol: as §1, with “CW0285M)” for “CW0285A)”
# as §2
Binder,EC50 [1] [nM],OD450 [2],EC50 [3] [nM],EC50 [4] [nM]
"13E5 (antibody, V domains shown, Murine hybridoma antibody purified on protein A; also called murine antibody 13E5; antibody secreted by hybridoma LT008 (IL4RA-13E5)) VH: EVQLQQSGPELVKPGASVKISCKTSGYTFTEYTIHWVKQNHGKSLEWIGGINPNNGGTVYNQNFKGKATLTVDKSSSTAYMELRSLTSEDSAVYYCARVRRGMDYWGQGTSVTVSS VL: DIVMTQSHKFMSTSVGDRVSITCKASQDVTTAVAWYQQKPGQSPKLLIYSASYRYTGVPDRFTGSGSGTDFTFTISSVQAEDLAVYYCQQHYSAPWTFGGGTNLEIK",0.084,0.053,3,
"18H7 (antibody, V domains shown, Murine hybridoma antibody purified on protein A; also called murine antibody 18H7; antibody secreted by hybridoma LT009 (IL4RA-18H7)) VH: DVKLVESGGDLVNLGGSLKLSCAASGFTFSSSYMSWVRQTPERRLELVAAINSNGGKTYYPDTVKGRFTISRDNAKNTLYLQMSGLKTEDTALYYCTRQRGNYVGAMDYWGQGTSVTVSS VL: DIVMTQSHKFMSTSVGDRVSITCKASQDVSTAVVWYQQKPGQSPTLLIYSASYRYTGVPDRFTGSGSGTDFTFTISSVQAEDLAVYYCHQYYGSPPTFGGGTKLEIK",0.068,,,2.71
